According to article doi:10.1101/2024.06.02.596995:

Key:
[1] = target: Armitage ΔN34-Flag (D. melanogaster) (UniProt Q6J5K9); assay: co-IP
[2] = target: Armitage KEE-Flag (D. melanogaster) (UniProt Q6J5K9); assay: co-IP

“Daedalus (Daed), endogenous in OSCs (natural protein)” gave a binding efficiency relative to WT Armi [1] of 20% and a binding efficiency relative to WT Armi [2] of 34%.
